Results taken from doi:10.1101/2022.11.04.515028.

Molecular target: GST-ELOB/ELOC complex (UniProt Q15370)
Experiment: fluorescence polarisation

Ki [nM] | Kd [nM] | Substance
2.35 |  | EPOPwt (peptide)
 | 0.45 | EPOPwt-FAM (peptide)
